From patent publication EP3917571B1

Target: ERp57 (PDIA3), human, endogenous in MDA-MB-231 ER-G2 cells (human) (UniProt P30101)
Test: proximity ligation assay on live, intact cells (probes ab10286 and ab13506)

Sequence of UniProt P30101 (P30101 25-505): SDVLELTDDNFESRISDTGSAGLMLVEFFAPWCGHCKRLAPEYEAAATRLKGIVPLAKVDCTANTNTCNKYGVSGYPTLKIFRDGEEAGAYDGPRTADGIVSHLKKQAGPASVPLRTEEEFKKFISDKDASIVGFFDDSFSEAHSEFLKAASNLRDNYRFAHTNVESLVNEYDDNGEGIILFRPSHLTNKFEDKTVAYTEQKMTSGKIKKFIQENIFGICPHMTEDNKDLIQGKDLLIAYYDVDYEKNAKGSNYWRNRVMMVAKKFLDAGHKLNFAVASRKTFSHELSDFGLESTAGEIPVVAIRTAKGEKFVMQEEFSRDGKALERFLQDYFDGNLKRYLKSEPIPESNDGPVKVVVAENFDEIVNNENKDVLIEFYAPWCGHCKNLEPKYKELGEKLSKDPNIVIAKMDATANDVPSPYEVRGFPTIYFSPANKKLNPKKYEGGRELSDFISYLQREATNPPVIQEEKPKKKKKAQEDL

proximity ligation assay signal, fold increase in MDA ER-G2 over wild-type MDA cells: 10 fold
B1: Calnexin (Cnx), human, endogenous in MDA-MB-231 ER-G2 and Huh7 cells (protein, UniProt P27824 21-592, looked up)
chain: HDGHDDDVIDIEDDLDDVIEEVEDSKPDTTAPPSSPKVTYKAPVPTGEVYFADSFDRGTLSGWILSKAKKDDTDDEIAKYDGKWEVEEMKESKLPGDKGLVLMSRAKHHAISAKLNKPFLFDTKPLIVQYEVNFQNGIECGGAYVKLLSKTPELNLDQFHDKTPYTIMFGPDKCGEDYKLHFIFRHKNPKTGIYEEKHAKRPDADLKTYFTDKKTHLYTLILNPDNSFEILVDQSVVNSGNLLNDMTPPVNPSREIEDPEDRKPEDWDERPKIPDPEAVKPDDWDEDAPAKIPDEEATKPEGWLDDEPEYVPDPDAEKPEDWDEDMDGEWEAPQIANPRCESAPGCGVWQRPVIDNPNYKGKWKPPMIDNPSYQGIWKPRKIPNPDFFEDLEPFRMTPFSAIGLELWSMTSDIFFDNFIICADRRIVDDWANDGWGLKKAADGAAEPGVVGQMIEAAEERPWLWVVYILTVALPVFLVILFCCSGKKQTSGMEYKKTDAPQPDVKEEEEEKEEEKDKGDEEEEGEEKLEEKQKSDAEEDGGTVSQEEEDRKPKAEEDEILNRSPRNRKPRRE
modifications: O-GalNAc (Tn) glycosylation mapped at T50, T59, T66, T79, S81 and S86 after GALA activation
